Experimental findings from paper PMC7029138, “Modulation of Symbiotic Compatibility by Rhizobial Zinc Starvation Machinery” are described below.

For data set [1], the target named is T1, Zur (His6-Zur) (Sinorhizobium fredii CCBAU45436, UniProt C3MDK7 1-131).
T1 sequence: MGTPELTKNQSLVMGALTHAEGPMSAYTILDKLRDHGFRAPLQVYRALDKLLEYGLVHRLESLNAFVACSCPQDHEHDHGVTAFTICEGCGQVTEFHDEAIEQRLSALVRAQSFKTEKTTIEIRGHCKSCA
Kind of data set: EMSA; 200 uM ZnSO4; 2.64 uM Zur; 10 mM Tris pH 7.5, 50 mM KCl, 1 mM DTT, 1 ug poly(dI-dC), 200 uM ZnSO4, with or without 50 uM TPEN, ~50 fmol probe in 15 ul, 25 C 20 min; 5% native PAGE in TB at 4 C. The following applies: protein: recombinant; tags: N-terminal His6 (pET-28a(+), BamHI/HindIII); chain copies: 2; label: 5' biotin on both strands; blunt. In general terms: A gel shift assay detects complexes by their altered migration in electrophoresis.

Data set [2] concerns the target T1, Zur (His6-Zur). Briefly: EMSA; 200 uM ZnSO4; 0.33-2.64 uM Zur, oligomeric shift above 1.32 uM; 10 mM Tris pH 7.5, 50 mM KCl, 1 mM DTT, 1 ug poly(dI-dC), 200 uM ZnSO4, with or without 50 uM TPEN, ~50 fmol probe in 15 ul, 25 C 20 min; 5% native PAGE in TB at 4 C. The following applies: protein: recombinant; tags: N-terminal His6 (pET-28a(+), BamHI/HindIII); chain copies: 2; label: 5' biotin on both strands; blunt.

B1: e68370 Zur box probe (dsDNA)
DNA 1: CAATCCCACGACGTAATGTTATAACATATCAGATAAGA
DNA 2: TCTTATCTGATATGTTATAACATTACGTCGTGGGATTG
As for B1, the binding result in data set [1] is recorded as “binds”.

B2: znuA promoter Zur box probe (dsDNA)
DNA 1: GCGACTGCGTCGTGTAATGTTATTACATCAATTGCGTTATGCTATAACGTGTGCAATAGC
DNA 2: GCTATTGCACACGTTATAGCATAACGCAATTGATGTAATAACATTACACGACGCAGTCGC
Consider B2, for which the binding result in data set [2] was “binds”.

B3: c06450 Zur box probe (dsDNA)
DNA 1: CAGCTCCTTATAATGTTATAACGTAACGGCACTTGATA
DNA 2: TATCAAGTGCCGTTACGTTATAACATTATAAGGAGCTG
Turning to B3, the binding result in data set [1] is reported as “binds”.

B4: d65890 Zur box probe (dsDNA)
DNA 1: TGATCGACGTGTGTAATGATATAACATATCGCATAAGT
DNA 2: ACTTATGCGATATGTTATATCATTACACACGTCGATCA
With B4, in data set [1], the binding result is “binds”.

B5: a42610 Zur box probe (dsDNA)
DNA 1: CAACATTCGCATGTTATGTTATAACATATCGCGTAATC
DNA 2: GATTACGCGATATGTTATAACATAACATGCGAATGTTG
As to B5, the binding result in data set [1] is “binds”.
